Source: PMC12435366, “Maleic anhydride derived diphosphines: adaptable chelators for receptor-targeted ^99mTc, ^64Cu and ^188Re radiotracers” (Chemical Science, 2025)

Experiment: Stability of radiotracers in PBS / kit-based reaction solution
Type: physicochemical
Conditions: ^99mTc and ^188Re radiotracers; radio-HPLC
Experimental: The new radiotracers, [^64Cu(DP^An-PSMAt)2]^+ and [^64Cu(DP^MEP-PSMAt)2]^+, were purified using reverse-phase HPLC, reformulated in aqueous PBS (phosphate buffered saline) solution, and incubated with human serum at 37 °C. […] Both ^64Cu radiotracers were also stable in aqueous PBS solution (see SI).
Both [^99mTcO2(DP^An-PSMAt)2]^+ and [^99mTcO2(DP^MEP-PSMAt)2]^+, prepared using kits, were incubated at 37 °C in human serum for up to 24 h. […] [^188ReO2(DP^An-PSMAt)2]^+ and [^188ReO2(DP^MEP-PSMAt)2]^+, prepared using kits and then isolated using reverse-phase HPLC in >98% radiochemical purity, were also incubated in human serum under the same conditions. […] These ^99mTc and ^188Re radiotracers were also stable when left to stand in kit-based reaction solutions, or in PBS solution (see SI for full chromatograms).
64Cu: A solution of either [ 64Cu(DPAn-PSMAt)2]+ or [64Cu(DPMEP-PSMAt)2]+ (purified, >98% RCP, 0.6– 0.8 MBq in 8–20 µL PBS) was diluted with PBS (350 µL total volume) and incubated at 37 °C. After 24 h, the sample was analysed by analytical C18 radio-HPLC (Method 2). […]
Each aliquot was treated with an equal amount of ice -cold MeCN to precipitate serum proteins and centrifuged (10,000 rpm, 10 min). The supernatant was isolated, MeCN evaporated under a stream of N2, and the resultant solution analysed by analytical C18 radio-HPLC (Method 2). […]

| Compound | stability when left to stand in kit-based reaction solutions, or in PBS solution |
| --- | --- |
| COCCOc1ccc(P(/C(C(=O)O)=C(/C(=O)NCCOCCOCCOCCOCCC(=O)NCCCC[C@H](NC(=O)N[C@@H](CCC(=O)O)C(=O)O)C(=O)O)P(c2ccc(OCCOC)cc2)c2ccc(OCCOC)cc2)c2ccc(OCCOC)cc2)cc1 [[^99mTcO2(DP^MEP-PSMAt)2]^+, metal not drawn] | stable |
| COc1ccc(P(/C(C(=O)O)=C(/C(=O)NCCOCCOCCOCCOCCC(=O)NCCCC[C@H](NC(=O)N[C@@H](CCC(=O)O)C(=O)O)C(=O)O)P(c2ccc(OC)cc2)c2ccc(OC)cc2)c2ccc(OC)cc2)cc1 [[^99mTcO2(DP^An-PSMAt)2]^+, metal not drawn] | stable |
